What is called Kd is the concentration at which binding is half-saturated. High values mean lower affinity, low ones higher affinity.

These results are taken from PMC5131575 (Biomaterials, 2016).

The experiment addresses Clathrin triskelions (bovine (purified from bovine brain), UniProt P49951 1-1675). The experiment in a line: SPR. (In SPR one partner is held on a chip, and binding of the other changes the refractive index at the surface.)

Chain of Clathrin triskelions (P49951 whole entry): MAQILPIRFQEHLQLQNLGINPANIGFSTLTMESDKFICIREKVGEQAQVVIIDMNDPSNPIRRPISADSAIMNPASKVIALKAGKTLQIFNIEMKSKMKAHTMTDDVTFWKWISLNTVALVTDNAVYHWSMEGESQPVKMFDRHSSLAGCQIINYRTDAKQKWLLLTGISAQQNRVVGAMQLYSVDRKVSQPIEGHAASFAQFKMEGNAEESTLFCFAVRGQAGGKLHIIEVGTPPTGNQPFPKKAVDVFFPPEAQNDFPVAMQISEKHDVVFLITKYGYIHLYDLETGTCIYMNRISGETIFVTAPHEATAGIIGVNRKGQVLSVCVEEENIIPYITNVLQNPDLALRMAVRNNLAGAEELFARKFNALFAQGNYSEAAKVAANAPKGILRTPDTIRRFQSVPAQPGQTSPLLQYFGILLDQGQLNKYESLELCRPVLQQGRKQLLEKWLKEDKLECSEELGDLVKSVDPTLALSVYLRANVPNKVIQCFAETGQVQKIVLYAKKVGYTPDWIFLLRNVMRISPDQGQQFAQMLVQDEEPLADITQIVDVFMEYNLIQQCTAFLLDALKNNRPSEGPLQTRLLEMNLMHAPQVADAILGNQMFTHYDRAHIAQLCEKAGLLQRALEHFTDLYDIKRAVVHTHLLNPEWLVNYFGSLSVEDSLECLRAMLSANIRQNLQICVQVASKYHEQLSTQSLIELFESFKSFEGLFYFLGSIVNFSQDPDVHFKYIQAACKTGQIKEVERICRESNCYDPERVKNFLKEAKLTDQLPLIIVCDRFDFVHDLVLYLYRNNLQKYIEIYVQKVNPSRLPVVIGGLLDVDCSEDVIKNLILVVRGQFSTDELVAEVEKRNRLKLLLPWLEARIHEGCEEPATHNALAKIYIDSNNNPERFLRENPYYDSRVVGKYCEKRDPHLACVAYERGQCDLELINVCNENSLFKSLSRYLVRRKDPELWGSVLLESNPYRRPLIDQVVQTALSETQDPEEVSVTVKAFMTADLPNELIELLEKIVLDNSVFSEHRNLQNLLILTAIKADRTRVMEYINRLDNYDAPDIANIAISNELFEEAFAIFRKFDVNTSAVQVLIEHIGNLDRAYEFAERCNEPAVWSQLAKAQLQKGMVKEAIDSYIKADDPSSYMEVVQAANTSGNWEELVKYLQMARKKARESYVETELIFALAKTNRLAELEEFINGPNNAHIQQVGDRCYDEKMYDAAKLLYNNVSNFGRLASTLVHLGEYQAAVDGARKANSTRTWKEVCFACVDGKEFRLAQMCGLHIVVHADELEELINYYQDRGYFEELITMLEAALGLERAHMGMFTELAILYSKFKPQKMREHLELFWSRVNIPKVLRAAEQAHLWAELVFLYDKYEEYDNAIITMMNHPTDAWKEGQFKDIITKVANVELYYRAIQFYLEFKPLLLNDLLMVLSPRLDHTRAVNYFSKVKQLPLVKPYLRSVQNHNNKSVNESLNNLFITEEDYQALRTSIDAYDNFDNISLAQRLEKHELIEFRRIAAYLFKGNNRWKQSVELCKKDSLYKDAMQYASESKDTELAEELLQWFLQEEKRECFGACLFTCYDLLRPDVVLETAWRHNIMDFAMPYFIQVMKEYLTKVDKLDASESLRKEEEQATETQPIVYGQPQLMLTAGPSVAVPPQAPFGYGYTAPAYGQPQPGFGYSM

Turning to PWDLW [GFP-Wbox], binding was put at a Kd of 3.9 µM.
